Laboratory results as given in PMC7244511, “Phosphoproteomics identifies dual-site phosphorylation in an extended basophilic motif regulating FILIP1-mediated degradation of filamin-C” (Communications Biology, 2020).

B1: Myc-tagged FLNc d18–21 WT (expressed in C2 cells) [human] / FILIP1 CT-GFP (expressed in C2 cells) [not stated] (parent)
chain 1: MRSRNQGGESASDGHISCPKPSIIGNAGEKSLSEDAKKKKKSNRKEDDVMASGTVKRHLKTSGECERKTKKSLELSKEDLIQLLSIMEGELQAREDVIHMLKTEKTKPEVLEAHYGSAEPEKVLRVLHRDAILAQEKSIGEDVYEKPISELDRLEEKQKETYRRMLEQLLLAEKCHRRTVYELENEKHKHTDYMNKSDDFTNLLEQERERLKKLLEQEKAYQARKEKENAKRLNKLRDELVKLKSFALMLVDERQMHIEQLGLQSQKVQDLTQKLREEEEKLKAITSKSKEDRQKLLKLEVDFEHKASRFSQEHEEMNAKLANQESHNRQLRLKLVGLTQRIEELEETNKNLQKAEEELQELRDKIAKGECGNSSLMAEVENLRKRVLEMEGKDEEITKTESQCRELRKKLQEEEHHSKELRLEVEKLQKRMSELEKLEEAFSKSKSECTQLHLNLEKEKNLTKDLLNELEVVKSRVKELECSESRLEKAELSLKDDLTKLKSFTVMLVDERKNMMEKIKQEERKVDGLNKNFKVEQGKVMDVTEKLIEESKKLLKLKSEMEEKVYNLTRERDELIGKLKSEEEKSSELSCSVDLLKKRLDGIEEVEREITRGRSRKGSELTCPEDNKIKELTLEIERLKKRLQQLEVVEGDLMKTEDEYDQLEQKFRTEQDKANFLSQQLEEIKHQIAKNKAIEKGEVVSQEAELRHRFRLEEAKSRDLKAEVQALKEKIHELMNKEDQLSQLQVDYSVLQQRFMEEENKNKNMGQEVLNLTKELELSKRYSRALRPSVNGRRMVDVPVTSTGVQTDAVSGEAAEEETPAVFIRKSFQEENHIMSNLRQVGLKKPVERSSVLDRYPPAANELTMRKSWIPWMRKRENGPSITQEKGPRTNSSPGHPGEVVLSPKQGQPLHIRVTPDHENSTATLEITSPTSEEFFSSTTVIPTLGNQKPRITIIPSPNVMPQKQKSGDTTLGPERAMSPVTITTFSREKTPESGRGAFADRPTSPIQIMTVSTSAAPAEIAVSPESQEMPMGRTILKVTPEKQTVPTPVRKYNSNANIITTEDNKIHIHLGSQFKRSPGTSGEGVSPVITVRPVNVTAEKEVSTGTVLRSPRNHLSSRPGASKVTSTITITPVTTSSARGTQSVSGQDGSSQRPTPTRIPMSKGMKAGKPVVAAPGAGNLTKFEPRAETQSMKIELKKSAASSTTSLGGGKG
chain 2: TGDDSMRTSQLNVGTSTDVSLKITESDLSQLTASIRAPSGNEEPCLLKRLPNRHIGISFTPKEVGEHVVSVRKSGKHVTNSPFKILVGPSEIGDASKVRVWGKGLSEGHTFQVAEFIVDTRNAGYGGLGLSIEGPSKVDINCEDMEDGTCKVTYCPTEPGTYIINIKFADKHVPGSPFTVKVTGEGRMKESITRRRQAPSIATIGSTCDLNLKIPGNWFQMVSAQERLTRTFTRSSHTYTRTERTEISKTRGGETKREVRVEESTQVGGDPFPAVFGDFLGRERLGSFGSITRQQEGEASSQDMTAQVTSPSGKVEAAEIVEGEDSAYSVRFVPQEMGPHTVAVKYRGQHVPGSPFQFTVGPLGEGGAHKVRAGGTGLERGVAGVPAEFSIWTREAGAGGLSIAVEGPSKAEIAFEDRKDGSCGVSYVVQEPGDYEVSIKFNDEHIPDSPFVVPVASLSDDARR
B2: Myc-hFLNc d18–21 wild type (expressed in HEK293 cells) [human] / FILIP1 CT-GFP (expressed in HEK293 cells) [not stated] (parent)
chain 1: LELSKRYSRALRPSVNGRRMVDVPVTSTGVQTDAVSGEAAEEETPAVFIRKSFQEENHIMSNLRQVGLKKPVERSSVLDRYPPAANELTMRKSWIPWMRKRENGPSITQEKGPRTNSSPGHPGEVVLSPKQGQPLHIRVTPDHENSTATLEITSPTSEEFFSSTTVIPTLGNQKPRITIIPSPNVMPQKQKSGDTTLGPERAMSPVTITTFSREKTPESGRGAFADRPTSPIQIMTVSTSAAPAEIAVSPESQEMPMGRTILKVTPEKQTVPTPVRKYNSNANIITTEDNKIHIHLGSQFKRSPGTSGEGVSPVITVRPVNVTAEKEVSTGTVLRSPRNHLSSRPGASKVTSTITITPVTTSSARGTQSVSGQDGSSQRPTPTRIPMSKESIIIHQLRMNSR
chain 2: B1 chain 2

Variants of: B1
Assay: co-immunoprecipitation (anti-Myc) with quantitative immunoblot
Conditions: C2 cells transiently expressing FILIP1 CT-GFP and Myc-hFLNc d18–21, n = 3, read off a plot

Variant	ratio to parent
chain 2 TGDDSMRTSQLNVGTSTDVSLKITESDLSQLTASIRAPSGNEEPCLLKRLPNRHIGISFTPKEVGEHVVSVRKSGKHVTNSPFKILVGPSEIGDASKVRVWGKGLSEGHTFQVAEFIVDTRNAGYGGLGLSIEGPSKVDINCEDMEDGTCKVTYCPTEPGTYIINIKFADKHVPGSPFTVKVTGEGRMKESITRRRQAPSIATIGSTCDLNLKIPGNWFQMVSAQERLTRTFTRSSHTYTRTERTEISKTRGGETKREVRVEESTQVGGDPFPAVFGDFLGRERLGAFGAITRQQEGEASSQDMTAQVTSPSGKVEAAEIVEGEDSAYSVRFVPQEMGPHTVAVKYRGQHVPGSPFQFTVGPLGEGGAHKVRAGGTGLERGVAGVPAEFSIWTREAGAGGLSIAVEGPSKAEIAFEDRKDGSCGVSYVVQEPGDYEVSIKFNDEHIPDSPFVVPVASLSDDARR [chain 2 S287A S290A]	1.8
chain 2 TGDDSMRTSQLNVGTSTDVSLKITESDLSQLTASIRAPSGNEEPCLLKRLPNRHIGISFTPKEVGEHVVSVRKSGKHVTNSPFKILVGPSEIGDASKVRVWGKGLSEGHTFQVAEFIVDTRNAGYGGLGLSIEGPSKVDINCEDMEDGTCKVTYCPTEPGTYIINIKFADKHVPGSPFTVKVTGEGRMKESITRRRQAPSIATIGSTCDLNLKIPGNWFQMVSAQERLTRTFTRSSHTYTRTERTEISKTRGGETKREVRVEESTQVGGDPFPAVFGDFLGRERLGDFGDITRQQEGEASSQDMTAQVTSPSGKVEAAEIVEGEDSAYSVRFVPQEMGPHTVAVKYRGQHVPGSPFQFTVGPLGEGGAHKVRAGGTGLERGVAGVPAEFSIWTREAGAGGLSIAVEGPSKAEIAFEDRKDGSCGVSYVVQEPGDYEVSIKFNDEHIPDSPFVVPVASLSDDARR [chain 2 S287D S290D]	0.82

Variants of: B2
Assay: as above
Conditions: HEK293 cells transiently expressing FILIP1 CT-GFP and Myc-hFLNc d18–21, n = 3–6, read off a plot

Variant	ratio to parent
chain 2 TGDDSMRTSQLNVGTSTDVSLKITESDLSQLTASIRAPSGNEEPCLLKRLPNRHIGISFTPKEVGEHVVSVRKSGKHVTNSPFKILVGPSEIGDASKVRVWGKGLSEGHTFQVAEFIVDTRNAGYGGLGLSIEGPSKVDINCEDMEDGTCKVTYCPTEPGTYIINIKFADKHVPGSPFTVKVTGEGRMKESITRRRQAPSIATIGSTCDLNLKIPGNWFQMVSAQERLTRTFTRSSHTYTRTERTEISKTRGGETKREVRVEESTQVGGDPFPAVFGDFLGRERLGDFGDITRQQEGEASSQDMTAQVTSPSGKVEAAEIVEGEDSAYSVRFVPQEMGPHTVAVKYRGQHVPGSPFQFTVGPLGEGGAHKVRAGGTGLERGVAGVPAEFSIWTREAGAGGLSIAVEGPSKAEIAFEDRKDGSCGVSYVVQEPGDYEVSIKFNDEHIPDSPFVVPVASLSDDARR [chain 2 S287D S290D]	0.82
chain 2 TGDDSMRTSQLNVGTSTDVSLKITESDLSQLTASIRAPSGNEEPCLLKRLPNRHIGISFTPKEVGEHVVSVRKSGKHVTNSPFKILVGPSEIGDASKVRVWGKGLSEGHTFQVAEFIVDTRNAGYGGLGLSIEGPSKVDINCEDMEDGTCKVTYCPTEPGTYIINIKFADKHVPGSPFTVKVTGEGRMKESITRRRQAPSIATIGSTCDLNLKIPGNWFQMVSAQERLTRTFTRSSHTYTRTERTEISKTRGGETKREVRVEESTQVGGDPFPAVFGDFLGRERLGSFGDITRQQEGEASSQDMTAQVTSPSGKVEAAEIVEGEDSAYSVRFVPQEMGPHTVAVKYRGQHVPGSPFQFTVGPLGEGGAHKVRAGGTGLERGVAGVPAEFSIWTREAGAGGLSIAVEGPSKAEIAFEDRKDGSCGVSYVVQEPGDYEVSIKFNDEHIPDSPFVVPVASLSDDARR [chain 2 S290D]	1
chain 2 TGDDSMRTSQLNVGTSTDVSLKITESDLSQLTASIRAPSGNEEPCLLKRLPNRHIGISFTPKEVGEHVVSVRKSGKHVTNSPFKILVGPSEIGDASKVRVWGKGLSEGHTFQVAEFIVDTRNAGYGGLGLSIEGPSKVDINCEDMEDGTCKVTYCPTEPGTYIINIKFADKHVPGSPFTVKVTGEGRMKESITRRRQAPSIATIGSTCDLNLKIPGNWFQMVSAQERLTRTFTRSSHTYTRTERTEISKTRGGETKREVRVEESTQVGGDPFPAVFGDFLGRERLGSFGAITRQQEGEASSQDMTAQVTSPSGKVEAAEIVEGEDSAYSVRFVPQEMGPHTVAVKYRGQHVPGSPFQFTVGPLGEGGAHKVRAGGTGLERGVAGVPAEFSIWTREAGAGGLSIAVEGPSKAEIAFEDRKDGSCGVSYVVQEPGDYEVSIKFNDEHIPDSPFVVPVASLSDDARR [chain 2 S290A]	1
chain 2 TGDDSMRTSQLNVGTSTDVSLKITESDLSQLTASIRAPSGNEEPCLLKRLPNRHIGISFTPKEVGEHVVSVRKSGKHVTNSPFKILVGPSEIGDASKVRVWGKGLSEGHTFQVAEFIVDTRNAGYGGLGLSIEGPSKVDINCEDMEDGTCKVTYCPTEPGTYIINIKFADKHVPGSPFTVKVTGEGRMKESITRRRQAPSIATIGSTCDLNLKIPGNWFQMVSAQERLTRTFTRSSHTYTRTERTEISKTRGGETKREVRVEESTQVGGDPFPAVFGDFLGRERLGDFGSITRQQEGEASSQDMTAQVTSPSGKVEAAEIVEGEDSAYSVRFVPQEMGPHTVAVKYRGQHVPGSPFQFTVGPLGEGGAHKVRAGGTGLERGVAGVPAEFSIWTREAGAGGLSIAVEGPSKAEIAFEDRKDGSCGVSYVVQEPGDYEVSIKFNDEHIPDSPFVVPVASLSDDARR [chain 2 S287D]	1
chain 2 TGDDSMRTSQLNVGTSTDVSLKITESDLSQLTASIRAPSGNEEPCLLKRLPNRHIGISFTPKEVGEHVVSVRKSGKHVTNSPFKILVGPSEIGDASKVRVWGKGLSEGHTFQVAEFIVDTRNAGYGGLGLSIEGPSKVDINCEDMEDGTCKVTYCPTEPGTYIINIKFADKHVPGSPFTVKVTGEGRMKESITRRRQAPSIATIGSTCDLNLKIPGNWFQMVSAQERLTRTFTRSSHTYTRTERTEISKTRGGETKREVRVEESTQVGGDPFPAVFGDFLGRERLGAFGSITRQQEGEASSQDMTAQVTSPSGKVEAAEIVEGEDSAYSVRFVPQEMGPHTVAVKYRGQHVPGSPFQFTVGPLGEGGAHKVRAGGTGLERGVAGVPAEFSIWTREAGAGGLSIAVEGPSKAEIAFEDRKDGSCGVSYVVQEPGDYEVSIKFNDEHIPDSPFVVPVASLSDDARR [chain 2 S287A]	1.4
chain 2 TGDDSMRTSQLNVGTSTDVSLKITESDLSQLTASIRAPSGNEEPCLLKRLPNRHIGISFTPKEVGEHVVSVRKSGKHVTNSPFKILVGPSEIGDASKVRVWGKGLSEGHTFQVAEFIVDTRNAGYGGLGLSIEGPSKVDINCEDMEDGTCKVTYCPTEPGTYIINIKFADKHVPGSPFTVKVTGEGRMKESITRRRQAPSIATIGSTCDLNLKIPGNWFQMVSAQERLTRTFTRSSHTYTRTERTEISKTRGGETKREVRVEESTQVGGDPFPAVFGDFLGRERLGAFGAITRQQEGEASSQDMTAQVTSPSGKVEAAEIVEGEDSAYSVRFVPQEMGPHTVAVKYRGQHVPGSPFQFTVGPLGEGGAHKVRAGGTGLERGVAGVPAEFSIWTREAGAGGLSIAVEGPSKAEIAFEDRKDGSCGVSYVVQEPGDYEVSIKFNDEHIPDSPFVVPVASLSDDARR [chain 2 S287A S290A]	2.1
